Values joined by “and” are separate entries in the source; they are usually repeats but may differ in a detail not shown here. Equal values may be shown once.

Experiment [1] concerns the target amphiphysin clathrin-box peptide clathrin-box peptide (UniProt P49418). Particulars: cited from earlier work.
Experiment [2] has as its target T1, clathrin N-terminal domain (TD) of the clathrin heavy chain, bovine, residues 1-363 (bovine, UniProt P49951 1-363).
T1 sequence (looked up): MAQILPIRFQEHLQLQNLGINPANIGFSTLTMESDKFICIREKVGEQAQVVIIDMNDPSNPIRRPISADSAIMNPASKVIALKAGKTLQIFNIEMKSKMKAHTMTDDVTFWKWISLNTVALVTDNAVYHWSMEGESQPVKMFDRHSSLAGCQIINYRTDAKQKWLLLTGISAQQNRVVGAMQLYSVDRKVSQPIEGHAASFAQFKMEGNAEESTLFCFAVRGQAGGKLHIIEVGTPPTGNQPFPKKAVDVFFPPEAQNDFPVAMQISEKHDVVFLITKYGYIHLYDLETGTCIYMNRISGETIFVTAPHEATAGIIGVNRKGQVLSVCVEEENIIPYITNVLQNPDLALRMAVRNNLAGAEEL
Briefly: ITC.

Experiment [3] addresses T1, clathrin N-terminal domain (TD) of the …. Briefly: NMR titration.

amphiphysin clathrin-box peptide clathrin-box peptide, sequence (P49418 whole entry, looked up, the tested form may be a part): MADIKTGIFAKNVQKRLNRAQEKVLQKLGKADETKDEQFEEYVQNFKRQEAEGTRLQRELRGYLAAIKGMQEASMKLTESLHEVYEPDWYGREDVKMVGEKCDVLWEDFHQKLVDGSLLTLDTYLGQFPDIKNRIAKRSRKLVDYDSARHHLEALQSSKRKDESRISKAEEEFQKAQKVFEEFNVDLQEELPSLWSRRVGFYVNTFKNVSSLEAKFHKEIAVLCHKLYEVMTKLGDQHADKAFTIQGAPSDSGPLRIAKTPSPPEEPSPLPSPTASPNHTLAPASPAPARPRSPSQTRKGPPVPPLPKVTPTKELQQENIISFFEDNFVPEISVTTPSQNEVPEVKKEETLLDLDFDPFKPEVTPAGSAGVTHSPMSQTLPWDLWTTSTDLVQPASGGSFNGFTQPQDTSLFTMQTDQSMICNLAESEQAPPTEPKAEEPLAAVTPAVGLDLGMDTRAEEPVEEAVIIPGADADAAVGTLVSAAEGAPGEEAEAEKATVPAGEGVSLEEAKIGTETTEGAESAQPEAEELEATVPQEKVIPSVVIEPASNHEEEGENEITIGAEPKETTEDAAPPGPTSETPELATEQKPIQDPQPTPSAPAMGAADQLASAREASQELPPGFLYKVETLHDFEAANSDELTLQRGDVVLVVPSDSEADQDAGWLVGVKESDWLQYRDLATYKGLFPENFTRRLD

For “clathrin heavy chain N-terminal domain (from UniProt P49951)”, the Kd (as a rule, the concentration at which binding is half-saturated) in experiment [1] was 22 µM.

B1: AP2 peptide (clathrin-box peptide from the hinge of the AP2 β2 subunit, residues 619-644) (peptide)
peptide: CQVIPSQGDLLGDLLNLDLGPPVNVPQ
For the molecule B1, in experiment [2], the Kd was 420 µM and 474 µM; the dH is -2.8 kcal/mol; the stoichiometry N (as a rule, the number of molecules, sites or subunits per partner or assembly) is 3.01 and 3. Besides, in experiment [3], the affinity, expressed as Kd, was 867 ± 246 µM and the “stoichiometry N” value turned out to be 2.6 ± 0.4.

B2: AP180 peptide 1 (residues 627-652 of mouse AP180) (peptide)
peptide: CSPAKAESSGVIDLFGDAFGSGASETQ
Take B2: in experiment [3], the equilibrium dissociation constant (Kd) turned out to be 829 ± 221 µM and the “stoichiometry N” value was determined as 3.9 ± 0.3.

B3: AP180 peptide 2 (residues 655-679 of mouse AP180) (peptide)
peptide: CPQAVASSSASADLLAGFGGSFMAPS
With B3, in experiment [3], the dissociation constant Kd was determined as 899 ± 529 µM and the “stoichiometry N” value came to 3.7 ± 0.6.

Source of the values: article PMC4429812 (Biochemistry, 2015).
